# Measured values: patent US20220363763A1 (ABL BIO, published 2022)
# T1: recombinant his-tag human LAG3-ECD protein (human, UniProt P18627 23-450)
# T1 construct: extracellular domain; not shown: his tag
# T1 sequence (looked up): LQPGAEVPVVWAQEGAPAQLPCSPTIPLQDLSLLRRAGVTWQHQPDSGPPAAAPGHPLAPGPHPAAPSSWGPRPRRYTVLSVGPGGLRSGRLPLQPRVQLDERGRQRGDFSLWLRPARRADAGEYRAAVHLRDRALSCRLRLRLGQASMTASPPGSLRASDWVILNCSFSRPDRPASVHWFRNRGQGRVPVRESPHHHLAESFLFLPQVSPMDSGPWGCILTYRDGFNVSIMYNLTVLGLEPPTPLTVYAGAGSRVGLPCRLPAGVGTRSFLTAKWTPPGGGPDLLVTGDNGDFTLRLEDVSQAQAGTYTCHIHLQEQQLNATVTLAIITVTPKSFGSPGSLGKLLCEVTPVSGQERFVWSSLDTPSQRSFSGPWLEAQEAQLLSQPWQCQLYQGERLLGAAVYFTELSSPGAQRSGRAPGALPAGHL
# T2: recombinant human LAG-3-ECD-human IgG1 fusion protein (human, UniProt P18627 23-450, biotin-labeled in the MHC class II blocking assays)
# T2 construct: extracellular domain; also called LAG-3-huFc; LAG-3-ECD-huFc; not shown: human IgG1 Fc
# T2 sequence (looked up): T1 sequence (looked up)
# T3: mouse LAG3 ECD-Fc protein (mouse, UniProt Q61790 24-442)
# T3 construct: extracellular domain; not shown: Fc part
# T3 sequence (looked up): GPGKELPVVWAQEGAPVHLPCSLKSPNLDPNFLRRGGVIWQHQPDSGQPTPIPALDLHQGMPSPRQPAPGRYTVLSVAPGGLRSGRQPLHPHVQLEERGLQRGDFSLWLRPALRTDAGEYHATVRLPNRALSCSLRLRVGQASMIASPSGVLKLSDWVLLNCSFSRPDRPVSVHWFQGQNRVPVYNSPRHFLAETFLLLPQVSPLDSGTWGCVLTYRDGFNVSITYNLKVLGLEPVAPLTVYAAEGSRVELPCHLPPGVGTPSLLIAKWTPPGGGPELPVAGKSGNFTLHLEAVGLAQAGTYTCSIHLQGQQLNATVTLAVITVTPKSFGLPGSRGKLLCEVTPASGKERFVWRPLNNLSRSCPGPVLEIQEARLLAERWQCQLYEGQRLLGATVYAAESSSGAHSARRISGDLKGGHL
# T4: rat LAG3 ECD-Fc protein (rat, UniProt Q5BK54 24-442)
# T4 construct: extracellular domain; not shown: Fc part
# T4 sequence (looked up): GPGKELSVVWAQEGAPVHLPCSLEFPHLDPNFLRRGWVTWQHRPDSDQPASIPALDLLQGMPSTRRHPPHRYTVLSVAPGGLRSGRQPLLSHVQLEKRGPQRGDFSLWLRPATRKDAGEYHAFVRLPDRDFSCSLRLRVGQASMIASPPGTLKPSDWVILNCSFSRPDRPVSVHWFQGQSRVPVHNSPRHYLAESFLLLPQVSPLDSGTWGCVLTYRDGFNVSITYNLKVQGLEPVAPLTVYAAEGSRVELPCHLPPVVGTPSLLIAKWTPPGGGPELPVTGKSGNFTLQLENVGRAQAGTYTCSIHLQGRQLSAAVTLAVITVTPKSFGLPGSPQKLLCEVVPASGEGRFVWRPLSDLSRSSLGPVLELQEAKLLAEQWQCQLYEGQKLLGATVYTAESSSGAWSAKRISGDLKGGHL
# T5: Bio-LAG3 (human, UniProt P18627 23-450, limits assumed, biotinylated (sites not given))
# T5 construct: also called human LAG3 protein
# T5 sequence (looked up): T1 sequence (looked up)
# T6: human LAG3 on cells (human, UniProt P18627 23-525)
# T6 construct: whole, on cells; also called Jurkat-LAG3
# T6 sequence (looked up): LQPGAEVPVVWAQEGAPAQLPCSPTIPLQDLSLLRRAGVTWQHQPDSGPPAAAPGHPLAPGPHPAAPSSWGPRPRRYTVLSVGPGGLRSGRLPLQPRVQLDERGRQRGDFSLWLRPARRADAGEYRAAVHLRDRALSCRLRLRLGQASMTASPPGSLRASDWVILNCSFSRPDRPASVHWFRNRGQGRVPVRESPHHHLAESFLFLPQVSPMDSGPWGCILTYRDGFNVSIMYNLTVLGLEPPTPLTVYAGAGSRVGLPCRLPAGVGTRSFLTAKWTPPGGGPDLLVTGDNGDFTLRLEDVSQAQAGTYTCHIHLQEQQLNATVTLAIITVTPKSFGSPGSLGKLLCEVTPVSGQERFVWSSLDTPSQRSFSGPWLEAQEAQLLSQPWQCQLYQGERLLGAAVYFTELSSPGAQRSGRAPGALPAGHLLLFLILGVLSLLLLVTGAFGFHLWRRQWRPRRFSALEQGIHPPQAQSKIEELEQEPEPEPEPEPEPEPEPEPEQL
# B1: NLAG3-HDB169-T99 (antibody, human IgG1, V domains shown)
# VH: QVQLVQSGAEVKKPGSSVKVSCKASGGTFSSYAISWVRQAPGQGLEWMGGIIPIFGTANYAQKFQGRVTITADESTSTAYMELSSLRSEDTAVYYCVRDLQDWNYGGAAYWGQGTLVTVSS
# VL: VIWMTQSPSSLSASVGDSVTITCQASRDISNSLSWHQQKPGKAPKLLIYAASSLQSGVPSRFSGSGSGTDFTLTISSLQPEDFATYYCQQTKSFPLTFGGGTKVEIKR
# notes: Short label tied by its unique suffix
# B2: 25F7 (antibody, V domains shown)
# VH: QVQLQQWGAGLLKPSETLSLTCAVYGGSFSDYYWNWIRQPPGKGLEWIGEINHNGNTNSNPSLKSRVTLSLDTSKNQFSLKLRSVTAADTAVYYCAFGYSDYEYNWFDPWGQGTLVTVSS
# VL: EIVLTQSPATLSLSPGERATLSCRASQSISSYLAWYQQKPGQAPRLLIYDASNRATGIPARFSGSGSGTDFTLTISSLEPEDFAVYYCQQRSNWPLTFGQGTNLEIK
# B3: WT (parental clone of the Hu1210-41 engineering) (antibody, V domains shown)
# VH: EVQLVESGGGLVQPGGSLRLSCAASGFTFSSYDMSWVRQAPGKSLEWVATISDAGGYIYYRDSVKGRFTISRDNAKNSLYLQMNSLRDEDTAVYICAREFGKRYALDYWGQGTTVTVSS
# VL: DIQMTQSPSSLSASVGDRVTITCKASQDVTPAVAWYQQKPGKAPKLLIYSTSSRYTGVPSRFSGSGSGTDFTFTISSLQPEDIATYYCQQHYTTPLTFGQGTKLEIK
# notes: Differs from Hu1210-41 by S60R (Kabat) in the heavy chain; also called parental antibody WT; parent antibody WT
# B4: NLAG3-HDB169-S27 (antibody, human IgG1, V domains shown)
# VH: QVQLVQSGAEVKKPGSSVKVSCKASGGTFSSYAISWVRQAPGQGLEWMGGIIPIFGTANYAQKFQGRVTITADESTSTAYMELSSLRSEDTAVYYCTTAAPGSYYLVFHYWGQGTLVTVSS
# VL: DIQLTQSPSSLSASVGDRVTITCRASQTISSHLNWYQQKPGKAPKVLIYAASSLQSGVPSRFSGSGSGTEFTLTISSLQPDDFATYYCQQGNSFPFTFGPGTKVEIKR
# notes: as for B1
# How the values were obtained:
# [1] = molecular target: T1, recombinant his-tag human LAG3-ECD …; assay: SPR Biacore T200, antibody captured by anti-human Fc, LAG3-ECD-his injected
# Procedure: The binding of the S20, S24, S27, S31, S87, S119, S120, S128, S136, S161 and T99 antibodies to recombinant his-tag human LAG3-ECD protein was examined by Biacore T200 using a capture method. Anti-LAG3 antibodies were captured using anti-human Fc antibody. The anti-human Fc antibody was coated on chip. Serial concentrations of his-tag human LAG3-ECD protein (0-4 nM) were injected over capture antibodies at the flow rate of 30 μl/min. The dissociation phase was 900 s or 550 s. The Biacore results for the anti-LAG3 antibodies have shown that these anti-LAG3 antibodies are high affinity binder to human LAG3.
# [2] = molecular target: T2, recombinant human LAG-3-ECD-human IgG1 …; assay: flow cytometry; blocking of biotin-LAG-3-ECD-huFc binding to MHC class II on Raji cells
# Procedure: To evaluate the ability of anti-LAG-3 antibodies to block the binding of sLAG-3 to MHC class II receptor, an in vitro binding assay was designed using biotin-labeled LAG-3-ECD-huFc fusion proteins and Raji cells expressing MHC class II receptor. Antibodies from Example 1 were serially diluted from 20 μg/mL with FACS buffer and pre-incubated with 6 μg/mL of biotin-LAG-3-ECD-huFcc for 30 min at room temperature. The antibody mixture was then added to FcR blocked Raji cells and incubated for 30 min on ice. Cells were then washed with FACS buffer and subsequently stained with streptavidin PE for 30 min on ice and subsequently washed once with FACS buffer. Labeled cells were evaluated for fluorescence intensity by flow cytometry in a BD FACSCalibur™.
# [3] = molecular target: T3, mouse LAG3 ECD-Fc protein; assay: ELISA on coated mouse LAG3 ECD-Fc; EC50 table has no unit, x axis Ab(nM); curve without upper plateau
# Procedure: (§1) To evaluate the capability of the anti-LAG-3 antibodies to bind to human, rat, and mouse LAG3 the antibodies identified in Example 2.1 were evaluated for their binding property through ELISA. The human, rat and mouse LAG3 ECD-Fc protein were coated to ELISA plate at 1 μg/ml with 100 μl/well. Antibodies from Example 1 were serially diluted with ELISA diluent buffer. […] The resulting plates were washed and then labeled with anti-human IgG(Fab)-HRP antibody. The S31 can only bind to human LAG3. The S27 and T99 can bind to human LAG3 and rat/mouse LAG3 with lower potency. The S119 antibody can bind to human, rat and mouse LAG3 at high potency (FIGS. 22A-22D).
# [4] = molecular target: T2, recombinant human LAG-3-ECD-human IgG1 …; assay: ELISA on coated human LAG3 ECD-Fc; EC50 table has no unit, x axis Ab(nM)
# Procedure: as §1
# [5] = molecular target: T4, rat LAG3 ECD-Fc protein; assay: ELISA on coated rat LAG3 ECD-Fc; EC50 table has no unit, x axis Ab(nM); curve without upper plateau
# Procedure: as §1
# [6] = molecular target: T5, Bio-LAG3; assay: ELISA, Bio-LAG3 held on streptavidin-coated plate
# Procedure: The streptavidin was coated to an ELISA plate at 2 μg/ml with 100 μl/well. 100 μl of Bio-LAG3 at 1.0 μg/ml was subsequently incubated with streptavidin at RT for 1 hr. B3807, along with a positive control 25F7 and a negative control IgG, were serially diluted with ELISA diluent buffer. To assess binding, the antibodies at various concentrations were added to LAG3 protein-coated plate for 1.5 hr RT. The resulting plates were washed and then labeled with anti-human IgG(Fab)-HRP antibody.
# [7] = molecular target: T6, human LAG3 on cells; assay: flow cytometry (MFI) on activated human PBMC (CD4+ cells), lower panel
# Procedure: (§2) To further confirm that B3807 could bind to cell-derived human LAG3, both inducible human LAG3 expressed Jurkat cells and activated PBMCs were used to test the binding capability of B3807. In brief, Jurkat cells were resuspended in FACS buffer. B3807, 25F7 and isotype control were 3-fold serially diluted in FACS buffer with a dose ranging from 20 nM to 9 pM. The serially diluted antibodies were added to the cell suspension and incubated for 30 minutes on ice. Then after removal of unbound antibodies, cells were stained with anti-human IgG conjugated with Alexa Fluor 633 (Thermo, A21091). Fluorescence measurement was acquired on FACSCelesta flow cytometer and analyzed in Flowjo to determine the mean fluorescence intensities (MFI). To test the antibodies' ability of binding to native human LAG3, PBMCs from health donor were stimulated with anti-CD3 (BD, 555336) and anti-CD28 (BD, 555725) both at a concentration of 1 μg/ml. Following 3 days' stimulation, cells were harvested and incubated with anti-LAG3 antibodies for 30 mins on ice. The cells were stained with anti-human CD4 and anti-human IgG. Analysis of antibodies binding to CD4+ cells were carried out on FACSCelesta flow cytometry.
# [8] = molecular target: T6, human LAG3 on cells; assay: flow cytometry (MFI) on human LAG3-expressing Jurkat cells, upper panel
# Procedure: as §2
# [9] = molecular target: T7, human PD-L1 (construct not stated) (human, UniProt Q9NZQ7 19-239, limits assumed); assay: SPR Biacore, affinity ranking
# T7 construct: also called B7-H1 (PD-L1); PD-L1 protein
# [10] = molecular target: T8, human PD-L1 expressed on mammalian cells (human, UniProt Q9NZQ7 19-290); assay: cell-based binding on Raji-PDL1 cells (FACS by paragraph 328; the y axis of the sheet is labelled IL2 (ng/ml)); EC50 table has no unit, x axis Concentration (nM)
# T8 construct: whole, on cells; also called PDL1-CHOK1 cells; PDL1-Raji cells
# Procedure: To evaluate the antigen binding property, the antibodies were analyzed for its binding to mammalian expressed PD-L1 by FACS. Briefly, PDL1-Raji cells were firstly incubated with 5-fold serious diluted humanized antibodies starting at 2 µg/ml at RT for 1 hour. After wash by FACS buffer (PBS with 2% FBS), the Alexa 488-anti-human IgG antibody was added to each well and incubated at RT for 1 hour. The MFI of Alexa 488 was evaluated by FACSAriaIII.
# T7 sequence (Q9NZQ7 19-239 limits assumed): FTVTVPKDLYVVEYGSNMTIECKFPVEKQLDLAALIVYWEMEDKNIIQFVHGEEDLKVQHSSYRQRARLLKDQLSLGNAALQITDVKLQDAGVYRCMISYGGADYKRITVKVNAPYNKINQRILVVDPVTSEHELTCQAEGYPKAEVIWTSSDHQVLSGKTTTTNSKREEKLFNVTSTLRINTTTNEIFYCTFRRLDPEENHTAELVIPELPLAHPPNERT
# T8 sequence (Q9NZQ7 19-290): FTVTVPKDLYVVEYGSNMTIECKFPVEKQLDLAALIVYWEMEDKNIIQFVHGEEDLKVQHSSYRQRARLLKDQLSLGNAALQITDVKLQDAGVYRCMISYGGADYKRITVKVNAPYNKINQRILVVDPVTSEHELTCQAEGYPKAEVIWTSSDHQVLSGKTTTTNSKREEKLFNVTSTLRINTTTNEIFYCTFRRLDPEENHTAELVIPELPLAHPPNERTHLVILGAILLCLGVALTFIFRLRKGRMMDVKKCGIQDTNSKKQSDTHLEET
Binder,Kd [1],koff [1],kon [1],IC50 [2],EC50 [3],EC50 [4],EC50 [5],EC50 [6],EC50 [7],EC50 [8],Kd [9],koff [9],kon [9],EC50 [10]
B1,0.0224 nM,0.00017 s⁻¹,7.62e+06 M⁻¹ s⁻¹,23.7 nM,16.9 nM,0.0638 nM,20.9 nM,–,–,–,–,–,–,–
B2,–,–,–,–,–,–,–,0.22 nM,0.52 nM,0.57 nM,–,–,–,–
B3,–,–,–,–,–,–,–,–,–,–,2.63 nM,0.000464 s⁻¹,177000 M⁻¹ s⁻¹,5.04 nM
B4,0.0156 nM,0.00011 s⁻¹,7.04e+06 M⁻¹ s⁻¹,29.8 nM,12.6 nM,0.21 nM,13.9 nM,–,–,–,–,–,–,–
